Results taken from publication PMC5378721, “The Proteasomal ATPases Use a Slow but Highly Processive Strategy to Unfold Proteins” (Frontiers in Molecular Biosciences, 2017).

Assays:
[1] = biological target: T1, PAN (Proteasome Activating Nucleotidase), with T20S (Methanocaldococcus jannaschii, UniProt Q58576); assay: GFPssrA unfolding, loss of fluorescence […], ATPγS:ATP ratio series; assay type: biochemical; settings: competing with ATP, 2 mM total nucleotide, 0.2 μM GFPssrA, 400 nM T20S, 20 mM MgCl2, pH 7.5
T1 construct: homohexamer; with Proteasome subunit alpha (20S proteasome of Thermoplasma acidophilum, T20S); Proteasome subunit beta (20S proteasome of Thermoplasma acidophilum, T20S)
T1 sequence (P25156 whole entry partner, one chain of several): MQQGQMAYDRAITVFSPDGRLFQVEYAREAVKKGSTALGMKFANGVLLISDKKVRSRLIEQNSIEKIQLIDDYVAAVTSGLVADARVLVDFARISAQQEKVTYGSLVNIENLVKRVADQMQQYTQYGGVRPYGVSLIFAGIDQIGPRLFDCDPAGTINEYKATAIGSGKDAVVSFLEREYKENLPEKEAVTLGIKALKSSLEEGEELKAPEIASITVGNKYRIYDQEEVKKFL
T1 sequence (P28061 9-211 partner, one chain of several): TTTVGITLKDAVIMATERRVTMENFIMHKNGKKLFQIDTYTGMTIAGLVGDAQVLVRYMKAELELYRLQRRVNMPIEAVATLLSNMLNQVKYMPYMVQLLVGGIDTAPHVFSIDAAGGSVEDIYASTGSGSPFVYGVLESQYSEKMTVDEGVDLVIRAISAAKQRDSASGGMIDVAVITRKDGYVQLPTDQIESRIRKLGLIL

[2] = biological target: PAN (Proteasome Activating Nucleotidase) (UniProt Q58576)
purified protein = substrate: Nc1ncnc2c1ncn2[C@@H]1O[C@H](COP(=O)(O)OP(=O)(O)OP(=O)(O)O)[C@@H](O)[C@H]1O; assay: purified protein; assay type: biochemical, Methanocaldococcus jannaschii; settings: 0.2 μM GFPssrA, 400 nM T20S, 20 mM MgCl2, pH 7.5, ATP hydrolysis read-out, printed unit doubtful: ATP was varied 0–3 mM, so mM likely meant

Nc1ncnc2c1ncn2[C@@H]1O[C@H](COP(=O)(O)OP(=O)(O)OP(O)(O)=S)[C@@H](O)[C@H]1O [ATPγS]
GFPssrA unfolding, loss of fluorescence 485/510, ATPγS:ATP ratio series [1]: as the ATPγS:ATP ratio increased, GFPssrA unfolding rate decreased

GFPssrA (GFP with an unstructured ssrA tag)
Km for GFPssrA in ATP-dependent unfolding by PAN (steady-state loss of GFP fluorescence, ex/em 485/510; GFPssrA 0 to 10 μM, 50 nM PAN, 400 nM T20S, 2 mM ATP) [2]: 0.187 µM

B1: PAN (Proteasome Activating Nucleotidase), with T20S (Methanocaldococcus jannaschii DSM 2661) (protein)
chain: MVFEEFISTELKKEKKAFTEEFKEEKEINDNSNLKNDLLKEELQEKARIAELESRILKLELEKKELERENLQLMKENEILRRELDRMRVPPLIVGTVVDKVGERKVVVKSSTGPSFLVNVSHFVNPDDLAPGKRVCLNQQTLTVVDVLPENKDYRAKAMEVDERPNVRYEDIGGLEKQMQEIREVVELPLKHPELFEKVGIEPPKGILLYGPPGTGKTLLAKAVATETNATFIRVVGSELVKKFIGEGASLVKDIFKLAKEKAPSIIFIDEIDAIAAKRTDALTGGDREVQRTLMQLLAEMDGFDARGDVKIIGATNRPDILDPAILRPGRFDRIIEVPAPDEKGRLEILKIHTRKMNLAEDVNLEEIAKMTEGCVGAELKAICTEAGMNAIRELRDYVTMDDFRKAVEKIMEKKKVKVKEPAHLDVLYR
notes: homohexamer; with Proteasome subunit alpha (20S proteasome of Thermoplasma acidophilum, T20S); Proteasome subunit beta (20S proteasome of Thermoplasma acidophilum, T20S)
Km (purified protein): 0.000397 ± 1.7e-05 mM
